# T1: Gonadotropin Releasing Hormone (GnRH) peptide (mammalian (same amino acid sequence in …, N-terminal pyroglutamic acid (pGlu))); C-terminal amide (GlyNH2))
# T1 construct: GnRH peptide bought from Peptides International; also called LHRH; Luteinizing Hormone Releasing Hormone
# T1 peptide: EHWSYGLRPG
# B1: chimeric anti-GnRH antibody (murine variable regions of hybridoma USASK/DSIL-LHRH-A1, ATCC HB-9094, fused with human IgG1 heavy chain and kappa light chain … (antibody, V domains shown)
# VH: QIQLVQSGPELKKPGETVKISCKASGYPFTNYGMNWVKQAPGKGLKWMGWINTYTGEPACADDFRGRFAISLETSARTAYLQINNLINEDTATYFCARTGGGRYNYGMDYWGQGTSVTVSS
# VL: QIVLTQSPAIMSASPGEKVTITCSATSSVSYIHWFQQKPGTSPKLWIYSTSNLASGVPVRFSGSGSGTSYSLTISRMEAEDAATYYCQQRSSYPPTFGGGTKLEIKR
# notes: Full-length chimeric heavy and light chains: murine variable regions on human IgG1 and human kappa constant domains; Tested as filtered supernatant of transiently transfected 293 HEK cells; also called chimeric GnRH antibody; chimeric antibody
# Biological target: T1, Gonadotropin Releasing Hormone (GnRH) …
# Experiment: competition ELISA (Friguet method): supernatant pre-incubated overnight with free GnRH peptide, then GnRH-coated plate; nonlinear regression
# Protocol: Supernatant was harvested […] after transfection and passed through a 0.2 μm syringe filter (Corning, Corning, N.Y.). Filtered supernatant was evaluated for total antibody expression and GnRH binding activity using protein A and GnRH ELISAs, respectively. Polystyrene ELISA plates (Corning) were coated overnight at room temperature with protein A (5 μg/mL, Sigma Aldrich, St Louis, Mo.) or GnRH peptide (1 μg/mL, Peptides International, Louisville, Ky.) in phosphate buffered saline. Plates were washed five times with PBS containing 0.05% tween 20 (Sigma), then blocked for one hour at room temperature with 1% bovine serum albumin in PBS. Filtered supernatant serially diluted two-fold in PBS was incubated in blocked wells for one hour. Plates were washed five times, then incubated for one hour with a biotinylated goat anti-human IgG1 antibody (Jackson ImmunoResearch, West Grove, Pa.) diluted 1:10,000 in blocking solution. Plates were then washed, incubated with streptavidin-HRP (Abcam, Cambridge, Mass.) diluted 1:30,000 in blocking solution for one hour, washed again, and developed with TMB substrate (Sigma). The reaction was stopped after 20 minutes by the addition of 2 N sulfuric acid. Absorbance was measured at […], with a reading at 540 nm subtracted as background. […] The fraction of antibody binding sites occupied by GnRH was calculated using the method of Stevens, 1987. […]
binder,measurement,value
B1,Kd,3.9 nM
